# From patent publication US11767344B2, “Pharmaceutically acceptable salts of polypeptides and methods of inhibiting the interaction between psd-95 and n-methyl-d-aspartic acid receptor (nmdar)” (BIOCELLS (BEIJING) BIOTECH CO., LTD., priority 2017, dated 2023)
# Ends that are not written are not given here.
# Columns and labels:
# [1] = Stability analysis of P5 salt solutions (HPLC area normalization); settings: aqueous solution 2 mg/ml, irradiation (3000 Lx), 10 days
# Description: The solutions were subjected to treatments with irradiation (3000 Lx) and high temperature (60° C.) for 10 days. After the treatments, 10 μl of each solution was accurately measured and injected into a liquid chromatograph, and the chromatograms were recorded. The relevant substances were calculated according to the area normalization method to analyze the content and the number of impurity species.
# high performance liquid chromatograph (Agilent, 1260 EZChrom); chromatographic column (Agilent, ZORBAX 300SB-C18 (4.6*250 mm, 5 μm) SN: USHH008416); analytical balance (Sartoris, BT25S); filter membrane (Millipore, 0.45 μm PTFE); acetonitrile (MREDA); water (Aqua); TFA (MREDA); and comprehensive drug stability test box (three-box type) (Shanghai Zuocheng Experimental Instrument Co. Ltd, item no. SHH-3SDT).
# (§1) Mobile phase: A 0.065% TFA-water; B 0.05% TFA-ACN
# (§2) Detection wavelength λ=220 nm; flow rate V=1.0 ml/min; temperature T=36° C.
# Injection volume Inj=10 μl
# (§3) Gradient conditions: 0-30 min, B %=5-65%
# [2] = Stability analysis of P5 salt powders (HPLC area normalization); settings: powder, 10 days
# Description: The three P5 salts in Example 3 in their powder form were subjected to treatments with irradiation (3000 Lx)+ultraviolet (UV), high temperature (60° C.), and high humidity (75% RH) for 10 days. After the treatments, the powders were dissolved in water to prepare a solution at a concentration of 2 mg/ml. 10 μl of each solution was accurately measured and injected into a liquid chromatograph, and the chromatograms were recorded. Relevant substances were calculated according to the area normalization method to analyze the content and the number of impurity species.
# as §1, §2
# Injection volume Inj=10 ul
# as §3
# [3] = system: rat MCAO model; test: Therapeutic effect on rat MCAO model (cerebral infarction volume, TTC staining); format: in vivo
# [4] = irradiation (3000 Lx) + ultraviolet
substance,measurement,setting,value
P5-TFA: trifluoroacetate salt of chimeric peptide P5 (YGRKKRRQRRRYEKLLDTEI) (also: trifluoroacetate salt),Number of impurity species,[1],10
same,Percentage of main peak area,[1],97.28%
same,Number of impurity species,[2]; high humidity (75% RH),1
same,Percentage of main peak area,[2]; high humidity (75% RH),99.73%
same,Number of impurity species,[2]; high temperature (60° C.),3
same,Percentage of main peak area,[2]; high temperature (60° C.),99.56%
same,Number of impurity species,[2]; [4],6
same,Percentage of main peak area,[2]; [4],98.34%
same,cerebral infarction volume as compared with the model group,"[3]; 10 mg/kg tail vein injection 1 hour after ischemia, 24 h after administration, p<0.01",significantly reduced
same,effect in reducing cerebral infarction volume as compared with positive control drug NBP,"[3]; 10 mg/kg vs NBP 2.5 mg/kg, tail vein injection 1 hour after ischemia, p<0.05",significantly superior
